Reference: patent US20140243502A1

Columns and labels:
[1] = biological target: GP IIb/IIIa in its activated, fibrinogen-bound state on activated mouse platelets (mouse) (UniProt Q9QUM0); assay: histology of wire-injured mouse femoral artery after bead perfusion, 20-25 sections per animal
[2] = biological target: GP IIb/IIIa in its activated, fibrinogen-bound state on activated mouse platelets (mouse) (UniProt Q9QUM0); assay: ex vivo 11.7 T MRI of wire-injured mouse femoral artery after bead perfusion

Chain of GP IIb/IIIa in its activated, fibrinogen-bound state on activated mouse platelets (mouse) (Q9QUM0 32-1033, chain 1 of 2): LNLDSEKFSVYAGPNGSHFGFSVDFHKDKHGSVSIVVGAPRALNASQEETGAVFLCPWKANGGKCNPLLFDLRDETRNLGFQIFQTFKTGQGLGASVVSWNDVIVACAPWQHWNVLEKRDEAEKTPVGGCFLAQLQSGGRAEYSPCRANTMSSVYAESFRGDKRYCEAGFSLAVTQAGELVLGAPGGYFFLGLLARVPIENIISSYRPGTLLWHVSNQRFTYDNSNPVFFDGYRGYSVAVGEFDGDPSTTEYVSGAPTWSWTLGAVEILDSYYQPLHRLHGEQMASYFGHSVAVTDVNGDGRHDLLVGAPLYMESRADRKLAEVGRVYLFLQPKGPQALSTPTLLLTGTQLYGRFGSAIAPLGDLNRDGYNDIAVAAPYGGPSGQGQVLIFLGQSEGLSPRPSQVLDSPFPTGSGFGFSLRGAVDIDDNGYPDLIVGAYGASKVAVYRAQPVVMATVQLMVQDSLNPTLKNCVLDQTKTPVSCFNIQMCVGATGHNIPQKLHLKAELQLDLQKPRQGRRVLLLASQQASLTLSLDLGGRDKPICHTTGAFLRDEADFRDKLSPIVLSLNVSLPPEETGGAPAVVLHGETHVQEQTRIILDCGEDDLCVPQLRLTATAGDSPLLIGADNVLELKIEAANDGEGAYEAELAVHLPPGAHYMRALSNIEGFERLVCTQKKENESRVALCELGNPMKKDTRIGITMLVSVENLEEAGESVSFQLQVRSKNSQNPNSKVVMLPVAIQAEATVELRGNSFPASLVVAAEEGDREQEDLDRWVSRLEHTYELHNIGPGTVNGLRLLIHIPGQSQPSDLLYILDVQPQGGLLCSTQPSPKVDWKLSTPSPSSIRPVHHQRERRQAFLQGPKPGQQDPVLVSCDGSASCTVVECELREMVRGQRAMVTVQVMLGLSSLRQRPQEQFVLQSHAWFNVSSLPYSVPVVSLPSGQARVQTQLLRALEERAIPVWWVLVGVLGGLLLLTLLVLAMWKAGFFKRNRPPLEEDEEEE
Chain of GP IIb/IIIa in its activated, fibrinogen-bound state on activated mouse platelets (mouse) (O54890 26-787, chain 2 of 2, further chain): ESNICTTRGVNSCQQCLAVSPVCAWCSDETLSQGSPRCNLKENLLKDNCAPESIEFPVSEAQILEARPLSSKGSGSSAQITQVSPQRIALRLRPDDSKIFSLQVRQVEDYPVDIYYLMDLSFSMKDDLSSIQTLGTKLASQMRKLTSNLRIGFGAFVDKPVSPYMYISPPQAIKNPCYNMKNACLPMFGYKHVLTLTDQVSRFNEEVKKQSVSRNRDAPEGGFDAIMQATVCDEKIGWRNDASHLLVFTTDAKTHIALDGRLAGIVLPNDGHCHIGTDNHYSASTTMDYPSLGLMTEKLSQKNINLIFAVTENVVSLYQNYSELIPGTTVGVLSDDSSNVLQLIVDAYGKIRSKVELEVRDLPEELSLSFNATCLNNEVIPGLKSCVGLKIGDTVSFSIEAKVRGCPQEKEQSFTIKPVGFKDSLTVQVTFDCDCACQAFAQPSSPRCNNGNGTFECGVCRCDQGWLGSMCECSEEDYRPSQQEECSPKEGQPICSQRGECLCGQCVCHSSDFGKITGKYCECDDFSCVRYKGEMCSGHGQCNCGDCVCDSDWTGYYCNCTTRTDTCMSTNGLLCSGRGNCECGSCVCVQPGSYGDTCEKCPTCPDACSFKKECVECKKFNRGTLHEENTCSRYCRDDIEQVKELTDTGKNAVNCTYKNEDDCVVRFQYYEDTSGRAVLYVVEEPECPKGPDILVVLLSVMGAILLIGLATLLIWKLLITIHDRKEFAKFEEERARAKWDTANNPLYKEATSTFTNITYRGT

Control-MPIO (irrelevant single-chain antibody conjugated to 1 µm iron oxide microparticles) (scFv)
MPIOs bound per histology section (beads per section) [1]: 0.5 | luminal areas of low signal (MPIO-induced MRI signal void) [2]: 6.2
